These are literature values, as cited in publication PMC11769735.

Usually Kd stands for a measure of binding affinity in units of concentration.

Data set [1] concerns the target G-actin (UniProt P68133).
The target of data set [2] is G-actin (UniProt P68133). This is another data set of the same source.
In data set [3] the target is ADP-actin filament barbed end (UniProt P68133).

Where two headings read alike, the source gives them in different places.

As to Twinfilin N-ADF-H (from UniProt Q91YR1), the Kd with G-actin [1] is 700 nM.

On to Twinfilin C-ADF-H (from UniProt Q91YR1), for which the Kd with G-actin [2] was 50 nM.

On to Twinfilin (from UniProt Q91YR1), for which the Kd in data set [3] was 13 nM.
